Laboratory results as given in patent publication US11571459B2, “Methods for treating cancer using PS-targeting antibodies with immuno-oncology agents” (ONCXERNA THERAPEUTICS, INC., priority 2017, dated 2023).

Key:
PS = assay: ELISA binding to PS-coated plates
Procedure: The 3G4 antibody was produced by immunizing mice with autologous, PS-positive endothelial cells, as reported in Ran et al., 2005. The 3G4 antibody was tested for binding to PS in a standard ELISA in the presence and absence of serum, and was initially characterized as being “serum-independent”, i.e., an antibody that binds to PS in the absence of serum.
In a follow-on study, the binding of the 2aG4 antibody to PS was tested in an ELISA in the presence of varying concentrations of human β2GPI.
These included binding to PS in ELISAs, FACS analyses using PS-positive cells and functional assays in the form of an NFAT surrogate ADCC bioassay (Larson et al., 2013).

β2GPI [1] = molecular target: T1, β2GPI (Homo sapiens, UniProt P02749); assay: Antibody binding to β2GPI (domain mapping)
T1 sequence (P02749 20-345): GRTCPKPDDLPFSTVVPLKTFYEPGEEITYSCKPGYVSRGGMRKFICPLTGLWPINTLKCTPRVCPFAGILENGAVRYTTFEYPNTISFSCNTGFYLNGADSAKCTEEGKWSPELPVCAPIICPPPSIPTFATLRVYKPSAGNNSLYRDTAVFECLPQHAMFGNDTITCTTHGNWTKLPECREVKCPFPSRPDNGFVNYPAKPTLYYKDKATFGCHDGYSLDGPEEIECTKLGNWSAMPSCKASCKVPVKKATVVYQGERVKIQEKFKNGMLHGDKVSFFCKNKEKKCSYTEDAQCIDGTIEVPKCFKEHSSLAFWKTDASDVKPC
Excerpt: In summary, it was shown that the 3G4 antibody binds to β2GPI at domain II and that the lipid binding region of β2GPI domain V is required for co-binding of 3G4 (and ch3G4) and β2GPI to PS exposed on cells. […] Accordingly, antibody and β2GPI co-bind to PS exposed on the outer surfaces of membranes, such as occurs on activated endothelial cells, tumor vascular endothelial cells and tumor cells, as well as on virally infected cells.

hepatitis C virus (HCV) = assay: Phase I single intravenous infusion dose escalation study in chronic HCV; type: in vivo, human; conditions: for Observed Cmax: HCV patients
Procedure: A Phase I, open-label, single center, dose escalation study evaluated a single intravenous infusion of bavituximab in patients chronically infected with HCV (Example III, A).
Bavituximab was first evaluated in Phase I, open-label, dose escalation studies and Phase Ib, open-label, escalating repeat-dose studies in patients chronically infected with hepatitis C virus (HCV). […] Doses of 0.1, 0.3, 1, 3 and 6 mg/kg were administered in Phase I (30 patients; successive cohorts of 6 patients), and doses of 0.3, 1, 3 and 6 mg/kg were administered in Phase Ib (24 patients; four cohorts of 6 patients).

HCV and HIV = assay: Phase Ib repeat-dose study in patients co-infected with chronic HCV and HIV; type: in vivo, human
Procedure: The primary objectives were to determine the safety, tolerability, PK profile, viral kinetics, MTD and/or MED. The study involved 16 scheduled visits over approximately 16 weeks. […] Dose escalation proceeded after all patients in the cohort had completed the first 4 weeks of dosing with no thrombotic events classified as serious adverse events (SAEs).
The median baseline HCV viral load was 6.76 log10 and the median baseline for HIV was 3.99 log10. Plasma viral loads of HCV and HIV were measured at specific time points during the study.

[2] = Phase Ib study of bavituximab with gemcitabine, paclitaxel plus carboplatin or docetaxel: PK; type: in vivo, human; conditions: 3 mg/kg weekly with gemcitabine
[3] = tested on: locally advanced or metastatic breast cancer; assay: Phase II bavituximab plus paclitaxel and carboplatin in breast cancer; conditions: with paclitaxel and carboplatin
Excerpt: This Phase II study utilized a Simon 2-stage design. […] The primary objective was to determine the overall response rate (ORR), defined as complete response (CR) plus partial response (PR), CR+PR. Secondary objectives included time to tumor progression, duration of response (DOR or DR), overall survival (OS) and safety.

[4] = in vivo
Procedure: Samples were collected from patients in the 0.1 and 0.3 mg/kg dose cohorts before the study, on days 0, 1, 2, 4, 7, 10, 14, and every 7 days from days 21 to 70. Samples were collected from patients in the 1 and 3 mg/kg dose cohorts before the study, on days 0, 1, 2, 4, 7, 14, 21, 22, 23, 25, and every 7 days from days 28 to 56.

[5] = irrespective of the presence of serum; cited from earlier work
β2GPI [6] = molecular target: T1, β2GPI; assay: Serum β2GPI levels after bavituximab, Phase Ib HCV study; type: in vivo; set-up: from tissue; host or cells: serum of human patients
Procedure: At the 6 mg/kg dose, β2GPI levels fell by 40% relative to the pretreatment levels, to approximately the lower limit of the normal range.

Q: With bavituximab as the substance, how does the “binding to PS in ELISA in the absence of serum” value (PS; antibody expressed in CHO cells under serum-free conditions) read?
A: binding to PS was lost

Q: And the “binding to phospholipids in standard ELISA” value (PS; phospholipid-coated ELISA plates)?
A: bound at least as well as the murine 3G4

Q: And the β2GPI domain bound (β2GPI [1])?
A: bind to domain II of β2GPI

Q: What about the “Observed Cmax” value (hepatitis C virus (HCV); 0.1 mg/kg single infusion) of the same substance?
A: 2500 ng/mL

Q: And the “Observed Cmax” value (hepatitis C virus (HCV); 0.3 mg/kg single infusion)?
A: 5700 ng/mL

Q: What about the “Observed Cmax” value (hepatitis C virus (HCV); 1 mg/kg single infusion) of the same substance?
A: 24300 ng/mL

Q: And the “Observed Cmax” value (hepatitis C virus (HCV); 3 mg/kg single infusion)?
A: 75800 ng/mL

Q: What about the “Observed Cmax” value (hepatitis C virus (HCV); 6 mg/kg single infusion) of the same substance?
A: 135000 ng/mL

Q: What about the tolerability (hepatitis C virus (HCV); Phase I and Phase Ib, 0.1 to 6 mg/kg) of the same substance?
A: all dose levels of bavituximab were well tolerated

Q: What about the viral load (hepatitis C virus (HCV); Phase I, all dose levels) of the same substance?
A: transient reductions in viral load

Q: And the “accumulation / time-dependent PK differences” value (HCV and HIV; 0.3 to 6 mg/kg once weekly for 8 weeks)?
A: did not exhibit time-dependent PK differences or accumulation

Q: What about the “maximum reduction in HCV and/or HIV viral load from baseline” value (HCV and HIV; several patients in each treatment group, all dose levels) of the same substance?
A: ≥ 0.5 log10

Q: What about the “accumulation (Cmax and AUC)” value [2] of the same substance?
A: no accumulation of bavituximab following multiple-dose administration

Q: What about the “median PFS” value [3] of the same substance?
A: 6.9 months

Q: What about the “median duration of response (DOR)” value [3] of the same substance?
A: 3.7 months

Q: And the CR ([3]; 46 patients)?
A: 10.9%

Q: What about the “Grade 3 anemia” value ([3]; 46 patients) of the same substance?
A: 10.9%

Q: And the “Grade 3 leukopenia” value ([3]; 46 patients)?
A: 23.9%

Q: What about the “Grade 3 neutropenia” value ([3]; 46 patients) of the same substance?
A: 19.6%

Q: What about the “Grade 4 neutropenia” value ([3]; 46 patients) of the same substance?
A: 26.1%

Q: What about the PR ([3]; 46 patients) of the same substance?
A: 63.0%

Q: What about the “objective response per RECIST” value ([3]; 46 patients) of the same substance?
A: 73.9%

Q: What about the “median OS” value ([3]; at study closure) of the same substance?
A: 23.2 months

Q: And the “accumulation following multiple-dose administration” value [4]?
A: did not exhibit appreciable accumulation or time-dependent PK differences

Q: What about the tolerability [4] of the same substance?
A: well tolerated at doses ranging up to 3 mg/kg weekly

Q: And the “binding to neutral phospholipids PC, SM or PE” value [5]?
A: no detectable binding

Q: What about the “change of β2GPI levels” value (β2GPI [6]; 1 mg/kg) of the same substance?
A: virtually unchanged

Q: What about the “time for β2GPI to return to pre-treatment level” value (β2GPI [6]; 3 mg/kg) of the same substance?
A: ≤ 24 h

Q: What about the “time for β2GPI to recover to baseline” value (β2GPI [6]; 6 mg/kg) of the same substance?
A: 3 days
